Test results taken from the supplement of paper PMC10567573.

B1: KLHL14 (parent)
chain: WLYCYDPVMDVWARKQDMNTKRAI
B2: SEPHS2 (parent)
chain: KASGRFGLLQGTSAETSGGLLICL

Variants of: B1
Test: protein stability index of a GFP-peptide fusion (GPS, HEK-293T) (PSI 1-6); higher = more stable
Settings: c terminus: a fixed tail appended
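Further: lentivirally expressed fusions sorted by FACS into six bins by GFP to DsRed ratio, PSI derived from sequencing read proportions per bin multiplied by bin number.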

Point of comparison: A23T, protein stability index 1.76. Against it:
- R22V — lower, 1.72
- R22T — higher, 1.91
- R22I — lower, 1.74
- R22Q — higher, 1.77
- R22S — higher, 2.12
- R22G — lower, 1.69
- R22C — higher, 2.15
- R22A — higher, 2.32
- R22E — higher, 2.19
- R22D — higher, 2.13
- R22M — higher, 1.88
- R22P — higher, 1.8
- R22N — higher, 1.82
- R22F — lower, 1.51
- R22L — higher, 1.83
- R22W — lower, 1.69
- R22H — higher, 2.01
- R22K — higher, 2
- R22Y — higher, 2.01
- A23Y — higher, 1.92
- A23F — higher, 2.24
- A23R — higher, 2.62
- A23V — lower, 1.63
- A23L — lower, 1.6
- A23Q — higher, 2.11
- A23D — higher, 2.22
- A23W — lower, 1.37
- A23C — higher, 1.78
- A23E — higher, 2.33
- A23S — higher, 1.97
- A23M — higher, 2.22
- A23N — lower, 1.7
- A23K — higher, 1.97
- A23G — lower, 1.51
- A23H — higher, 2.02
- A23I — lower, 1.57
- A23P — lower, 1.58
- K21Y — higher, 1.92
- I24H — higher, 2.63
- I24E — higher, 2.31
- I24G — higher, 2.13
- I24F — lower, 1.42
- I24A — higher, 2.36
- I24L — higher, 2.25
- I24P — higher, 2.68
- I24W — higher, 2.39
- I24S — higher, 2.86
- I24Q — higher, 2.79
- I24V — higher, 2.53
- I24T — higher, 1.87
- I24C — higher, 1.99
- I24D — higher, 2.92
- I24R — lower, 1.4
- I24Y — higher, 2.45
- I24N — higher, 2.29
- I24K — higher, 2.44
- I24M — higher, 2.16

Variants of: B2
Test: as above
Settings: c terminus: a fixed tail appended

Point of comparison: C23K, protein stability index 1.53. Against it:
- E15C — higher, 2.82
- E15I — higher, 1.91
- E15R — lower, 1.37
- E15Y — higher, 4.55
- E15D — higher, 2.1
- E15T — higher, 2.48
- E15A — higher, 2.02
- E15W — higher, 1.66
- S3F — higher, 1.71
- S3M — lower, 1.51
- S3D — higher, 2.07
- S3E — higher, 2.76
- S3T — higher, 3.36
- S3R — higher, 1.82
- S3H — higher, 4.72
- S3A — higher, 1.55
- S3P — higher, 3.31
- Q10M — higher, 3.87
- Q10N — higher, 2.95
- Q10V — higher, 3.11
- Q10I — higher, 3.54
- Q10P — higher, 2.19
- Q10E — higher, 2.2
- Q10S — higher, 1.71
- C23D — higher, 2.02
- C23A — higher, 1.93
- C23F — higher, 3.71
- C23H — higher, 4.17
- C23M — lower, 1.49
- C23S — higher, 1.81
- C23T — lower, 1.32
- C23Q — higher, 1.73
- C23N — higher, 1.79
- C23P — higher, 2.02
- G4L — higher, 2.01
- G4P — higher, 1.95
- G4S — higher, 3.04
- G4Q — higher, 2.76
- G4E — higher, 3.09
- G4K — higher, 3.51
- G4A — higher, 4.01
- G4T — higher, 3.11
- G4D — higher, 2.9
- G11N — higher, 2.76
- G11R — higher, 3.92
- G11S — higher, 1.86
- G11Q — higher, 2.54
- G11K — higher, 3.04
- G11M — higher, 2.37
- G11T — higher, 4.7
- G11H — higher, 2.12
- L24S — higher, 1.9
- L24K — higher, 2.67
- L24F — higher, 4.05
- L24P — higher, 2.8
- L24A — lower, 1.24
- L24R — higher, 2.55
- L24T — higher, 2.43
- L24Y — higher, 2.62
- L24D — higher, 2.99
- L24H — higher, 1.89
- L24E — higher, 3.13
- L24N — higher, 2.11
- A2Q — higher, 3.26
- A2S — higher, 3.5
- A2G — lower, 1.38
- A2Y — higher, 2.29
- A2W — higher, 2.41
- A2V — higher, 3.69
- A2D — higher, 2.81
- K1E — higher, 2.6
- K1D — higher, 2.07
- K1T — higher, 1.69
- K1G — lower, 1.44
- K1S — higher, 3.13
- K1C — higher, 2.13
- K1N — higher, 1.95
- K1L — higher, 2.28
- K1W — higher, 2.52
- S13K — higher, 2.7
- S13M — higher, 2.24
- S13V — higher, 4.84
- S13D — higher, 2.01
- S13Q — lower, 1.5
- S17W — higher, 3.02
- S17G — higher, 2.08
- S17N — higher, 2.67
- S17F — higher, 2.78
- S17L — lower, 1.18
- T16R — higher, 2.58
- T16F — higher, 3.47
- T16S — higher, 1.61
- T16H — higher, 1.88
- T16M — higher, 2.06
- T16I — higher, 2.5
- L9I — higher, 2.41
- L9P — higher, 2.32
- L9N — higher, 1.78
- L9R — higher, 2.98
- L9V — higher, 1.74
- L9E — higher, 2.76
- L9Y — higher, 2.09
- R5A — higher, 5.51
- R5K — higher, 2.97
- R5H — higher, 3.5
- R5D — higher, 2.61
- R5I — higher, 3.36
- R5L — higher, 3.49
